This note sets out measurements from patent US20150064134A1.

Some targets named below: EGFR(h) (human) (UniProt P00533); FGFR2(h) (human) (UniProt P21802); SIK(h) (human) (UniProt P57059); CHK2(R145W)(h) (human) (UniProt O96017); ASK1(h) (human) (UniProt Q99683); MEK1(h) (human) (UniProt Q02750); GSK3β(h) (human) (UniProt P49841); Aurora-B(h) (human) (UniProt Q96GD4).
What all share (assay): cell-based or functional assay
Another assay deals with T1, MST2(h) (human) (UniProt Q13188).
T1 sequence (looked up): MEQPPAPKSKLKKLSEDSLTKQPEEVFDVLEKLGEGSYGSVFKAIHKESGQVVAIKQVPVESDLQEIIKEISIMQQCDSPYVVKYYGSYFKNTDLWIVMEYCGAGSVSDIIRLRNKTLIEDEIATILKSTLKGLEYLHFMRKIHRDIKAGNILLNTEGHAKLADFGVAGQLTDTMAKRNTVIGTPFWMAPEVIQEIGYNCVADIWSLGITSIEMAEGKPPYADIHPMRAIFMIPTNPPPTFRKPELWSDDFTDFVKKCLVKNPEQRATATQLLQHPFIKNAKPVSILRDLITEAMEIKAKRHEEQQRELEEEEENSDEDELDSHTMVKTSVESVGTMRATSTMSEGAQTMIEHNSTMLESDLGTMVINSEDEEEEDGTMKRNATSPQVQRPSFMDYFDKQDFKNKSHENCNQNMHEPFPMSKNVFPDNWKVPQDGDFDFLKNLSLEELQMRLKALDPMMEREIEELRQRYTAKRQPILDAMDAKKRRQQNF

The next assay has as its target T2, BrSK1(h) (human) (UniProt Q8TDC3).
T2 sequence (looked up): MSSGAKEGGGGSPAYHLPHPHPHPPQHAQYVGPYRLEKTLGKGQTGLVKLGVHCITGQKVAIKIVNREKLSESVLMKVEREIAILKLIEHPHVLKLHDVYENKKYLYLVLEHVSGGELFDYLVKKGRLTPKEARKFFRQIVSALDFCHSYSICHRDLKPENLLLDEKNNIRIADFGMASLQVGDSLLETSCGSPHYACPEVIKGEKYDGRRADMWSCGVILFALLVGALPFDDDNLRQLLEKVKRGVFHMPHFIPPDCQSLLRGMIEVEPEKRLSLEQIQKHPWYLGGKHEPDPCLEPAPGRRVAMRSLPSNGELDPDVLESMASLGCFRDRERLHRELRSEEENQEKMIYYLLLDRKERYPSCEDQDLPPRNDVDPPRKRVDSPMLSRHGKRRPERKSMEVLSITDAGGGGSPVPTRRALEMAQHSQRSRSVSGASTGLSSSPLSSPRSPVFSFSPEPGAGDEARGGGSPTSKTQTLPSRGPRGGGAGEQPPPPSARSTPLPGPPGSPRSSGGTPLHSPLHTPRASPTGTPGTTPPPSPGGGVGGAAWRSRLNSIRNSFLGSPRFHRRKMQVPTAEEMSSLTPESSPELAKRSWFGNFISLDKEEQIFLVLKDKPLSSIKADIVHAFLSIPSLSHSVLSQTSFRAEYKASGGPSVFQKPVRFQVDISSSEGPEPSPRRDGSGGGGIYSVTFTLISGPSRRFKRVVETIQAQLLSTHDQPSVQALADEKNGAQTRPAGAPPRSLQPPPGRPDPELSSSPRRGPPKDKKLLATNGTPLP

The next assay concerns the target T3, Fms(h) (human) (UniProt P07333).
T3 sequence (looked up): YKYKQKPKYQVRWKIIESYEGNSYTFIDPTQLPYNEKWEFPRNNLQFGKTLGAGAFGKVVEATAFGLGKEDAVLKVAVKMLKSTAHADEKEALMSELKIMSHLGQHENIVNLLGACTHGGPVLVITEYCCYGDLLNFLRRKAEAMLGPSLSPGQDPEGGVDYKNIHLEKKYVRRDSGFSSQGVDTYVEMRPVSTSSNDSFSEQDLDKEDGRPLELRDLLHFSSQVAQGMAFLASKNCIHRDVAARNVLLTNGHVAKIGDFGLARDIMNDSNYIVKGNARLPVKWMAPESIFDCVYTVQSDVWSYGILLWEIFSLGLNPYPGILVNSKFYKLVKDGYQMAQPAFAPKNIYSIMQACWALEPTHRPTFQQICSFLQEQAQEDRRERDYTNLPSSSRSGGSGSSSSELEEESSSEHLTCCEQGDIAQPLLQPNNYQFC

The target in the next assay is T4, PKCµ(h) (human) (UniProt Q15139).
T4 sequence (looked up): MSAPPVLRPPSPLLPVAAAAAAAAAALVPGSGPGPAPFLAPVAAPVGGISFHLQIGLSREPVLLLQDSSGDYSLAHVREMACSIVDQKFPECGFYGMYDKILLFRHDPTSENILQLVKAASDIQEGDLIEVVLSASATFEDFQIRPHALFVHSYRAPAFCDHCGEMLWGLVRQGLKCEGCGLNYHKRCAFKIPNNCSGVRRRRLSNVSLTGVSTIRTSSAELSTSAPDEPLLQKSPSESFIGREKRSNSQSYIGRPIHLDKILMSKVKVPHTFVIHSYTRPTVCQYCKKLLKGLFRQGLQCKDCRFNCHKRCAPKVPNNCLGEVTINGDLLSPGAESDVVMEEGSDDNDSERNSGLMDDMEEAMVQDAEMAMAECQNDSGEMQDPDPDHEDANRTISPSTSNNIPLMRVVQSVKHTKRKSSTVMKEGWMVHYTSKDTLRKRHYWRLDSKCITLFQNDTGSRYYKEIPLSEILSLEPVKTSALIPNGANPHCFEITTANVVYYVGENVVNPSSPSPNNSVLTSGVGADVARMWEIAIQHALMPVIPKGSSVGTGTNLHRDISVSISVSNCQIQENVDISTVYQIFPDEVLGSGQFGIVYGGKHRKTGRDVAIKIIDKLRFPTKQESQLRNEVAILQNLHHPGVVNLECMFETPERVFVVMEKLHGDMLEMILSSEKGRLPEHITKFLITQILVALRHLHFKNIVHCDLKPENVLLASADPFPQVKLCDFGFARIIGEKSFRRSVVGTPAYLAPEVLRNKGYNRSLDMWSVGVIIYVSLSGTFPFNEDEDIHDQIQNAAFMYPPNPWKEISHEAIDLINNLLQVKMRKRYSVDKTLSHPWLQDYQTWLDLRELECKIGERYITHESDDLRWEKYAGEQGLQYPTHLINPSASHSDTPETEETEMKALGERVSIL

FGFR2(h) (human), sequence (P21802 456-770 limits assumed): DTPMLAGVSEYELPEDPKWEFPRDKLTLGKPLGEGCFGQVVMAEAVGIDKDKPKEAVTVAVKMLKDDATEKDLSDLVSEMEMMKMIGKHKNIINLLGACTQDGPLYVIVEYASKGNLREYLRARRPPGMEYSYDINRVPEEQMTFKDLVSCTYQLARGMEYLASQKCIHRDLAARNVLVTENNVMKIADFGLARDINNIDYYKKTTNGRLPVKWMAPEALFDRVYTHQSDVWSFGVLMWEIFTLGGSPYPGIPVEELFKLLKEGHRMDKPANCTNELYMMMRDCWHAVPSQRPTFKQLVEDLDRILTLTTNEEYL
CHK2(R145W)(h) (human), sequence (O96017 5-543 R145W limits assumed): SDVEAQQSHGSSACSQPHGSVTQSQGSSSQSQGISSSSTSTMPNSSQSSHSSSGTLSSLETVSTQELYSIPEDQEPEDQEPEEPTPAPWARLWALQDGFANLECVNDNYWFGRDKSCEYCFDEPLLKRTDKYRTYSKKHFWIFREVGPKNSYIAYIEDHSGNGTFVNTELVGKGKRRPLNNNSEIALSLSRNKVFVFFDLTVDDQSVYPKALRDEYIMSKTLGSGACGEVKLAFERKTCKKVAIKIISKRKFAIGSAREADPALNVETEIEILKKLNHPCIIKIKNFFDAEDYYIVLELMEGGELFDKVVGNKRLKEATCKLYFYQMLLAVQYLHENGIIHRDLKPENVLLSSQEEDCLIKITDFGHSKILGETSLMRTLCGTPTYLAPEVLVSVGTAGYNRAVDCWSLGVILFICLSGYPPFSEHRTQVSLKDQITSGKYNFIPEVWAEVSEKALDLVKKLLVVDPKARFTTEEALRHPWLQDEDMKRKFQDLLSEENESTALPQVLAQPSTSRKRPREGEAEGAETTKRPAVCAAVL
Aurora-B(h) (human), sequence (Q96GD4 whole entry): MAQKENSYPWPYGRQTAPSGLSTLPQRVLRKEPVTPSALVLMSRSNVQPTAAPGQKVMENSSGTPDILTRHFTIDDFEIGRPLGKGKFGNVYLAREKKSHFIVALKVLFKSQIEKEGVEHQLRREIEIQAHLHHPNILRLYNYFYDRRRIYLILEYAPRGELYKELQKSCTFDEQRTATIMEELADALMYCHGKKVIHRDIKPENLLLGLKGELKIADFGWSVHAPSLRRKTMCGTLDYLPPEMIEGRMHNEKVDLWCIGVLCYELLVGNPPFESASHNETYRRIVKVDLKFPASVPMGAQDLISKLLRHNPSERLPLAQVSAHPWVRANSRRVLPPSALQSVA

With MMI-0500 (peptide), the % activity at 100 µM in the assay with MST2(h) (human) was 2%; with EGFR(h) (human) it was -1%; in the assay with BrSK1(h) (human), 72%; in the assay with FGFR2(h) (human) it was 12%; in the assay with SIK(h) (human) it was 40%; with CHK2(R145W)(h) (human) it was 3%. Further, the % activity at 100 µM with Fms(h) (human) was 14%; with ASK1(h) (human) it was -4%; in the assay with PKCµ(h) (human) it was 10%; with MEK1(h) (human) it was 21%; with GSK3β(h) (human), 238%; with Aurora-B(h) (human), 5%.
In the case of MMI-0300 (peptide), the % activity at 100 µM with MST2(h) (human) is 19%; with EGFR(h) (human), 21%; with BrSK1(h) (human) it was 67%; with FGFR2(h) (human) it was 14%; in the assay with SIK(h) (human) it was 66%; in the assay with CHK2(R145W)(h) (human) it was 33%. Also, the % activity at 100 µM was 45% with Fms(h) (human); 80% with ASK1(h) (human); 22% with PKCµ(h) (human); 77% in the assay with MEK1(h) (human); 205% in the assay with GSK3β(h) (human); 128% with Aurora-B(h) (human).
Consider MMI-0400 (peptide), for which the % activity at 100 µM with MST2(h) (human) was 11%; in the assay with EGFR(h) (human), 16%; with BrSK1(h) (human), 76%; with FGFR2(h) (human), 18%; with SIK(h) (human) it was 68%; with CHK2(R145W)(h) (human), 31%. The % activity at 100 µM is 37% with Fms(h) (human); 69% with ASK1(h) (human); 14% with PKCµ(h) (human); 77% with MEK1(h) (human); 202% with GSK3β(h) (human); 150% in the assay with Aurora-B(h) (human).
